Experimental data taken from patent publication CN115975019A (INST PATHOGEN BIOLOGY CAMS, dated 2023).

B1: A46抗体 (antibody, V domains shown)
VH: EVQLLESGGGLIQPGGSLRLSCAVSEFIVSRNYMSWVRQAPGKGLEWVSVLYPGGSTFYADSVKGRFTISRDESTNTLFLQMNTLRVEDTAVYYCARDFGDFYFDFWGQGTLVTVSS
VL: EIVLTQSPGTLSLSPGQRAALSCRASQSVSTYLAWYQQKPGQAPRLLIHDASSRASGVPDRFSGTGSGTDFTLTITRLEPEDFAVYYCQQYGTSPRTFGQGTKLEIK
notes: also called 抗体A46
B2: A70抗体 (antibody, V domains shown)
VH: QITLKESGPTLVKPTQTLTLTCTFSGFSLDTPGVAIGWIRQPPGRALEWLGLIYWDGDERYNPSLTSRVTLTKDTSKNQVVLTMTNVDSVDTGTYFCGHKTIPTIFGVWGQGAPVTVSS
VL: QSALTQPASVSGSPGQSITISCAATSGDFGVFNYVSWYQQHPGKAPKLIIFEVSSRPSGVSNRFSGSKSGNTASLTVSGLQAEDEAVYHCSSYSTSSVVFGGGTKLTVL
notes: also called 抗体A70

Molecular target: SARS-CoV-2 刺突RBD蛋白 (Sinobiological) (SARS-CoV-2, UniProt P0DTC2 319-541)

Binder	EC50	IC50
B1	0.0355 µg/mL	0.703 µg/mL
B2	0.0511 µg/mL	0.515 µg/mL
